Laboratory results: US20100310509A1 (published 2010)

T1: soluble gp130 (R&D Systems # 228-GP-050/CF) (UniProt P40189 23-619, limits assumed)
T1 construct: extracellular domain; Bought
T1 sequence (looked up): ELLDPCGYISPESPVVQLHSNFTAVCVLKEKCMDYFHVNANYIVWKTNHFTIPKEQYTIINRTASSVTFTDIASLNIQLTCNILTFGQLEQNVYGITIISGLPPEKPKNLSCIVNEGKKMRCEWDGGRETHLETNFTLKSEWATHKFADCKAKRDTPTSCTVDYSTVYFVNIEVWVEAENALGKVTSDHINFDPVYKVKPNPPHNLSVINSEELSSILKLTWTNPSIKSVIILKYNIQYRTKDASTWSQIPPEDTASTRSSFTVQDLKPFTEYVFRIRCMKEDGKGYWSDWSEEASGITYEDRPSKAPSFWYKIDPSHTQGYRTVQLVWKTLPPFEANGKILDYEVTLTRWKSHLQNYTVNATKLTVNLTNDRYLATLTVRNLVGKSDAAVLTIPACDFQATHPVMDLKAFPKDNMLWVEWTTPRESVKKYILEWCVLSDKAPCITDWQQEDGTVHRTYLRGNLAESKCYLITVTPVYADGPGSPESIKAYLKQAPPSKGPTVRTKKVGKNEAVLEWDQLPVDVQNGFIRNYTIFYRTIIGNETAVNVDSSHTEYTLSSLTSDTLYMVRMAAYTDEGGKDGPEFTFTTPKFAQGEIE

T2: soluble human LIFR (leukemia inhibitory factor receptor) (human, UniProt P42702 45-833)
T2 construct: extracellular domain; Bought; also called soluble LIFR
T2 sequence (looked up): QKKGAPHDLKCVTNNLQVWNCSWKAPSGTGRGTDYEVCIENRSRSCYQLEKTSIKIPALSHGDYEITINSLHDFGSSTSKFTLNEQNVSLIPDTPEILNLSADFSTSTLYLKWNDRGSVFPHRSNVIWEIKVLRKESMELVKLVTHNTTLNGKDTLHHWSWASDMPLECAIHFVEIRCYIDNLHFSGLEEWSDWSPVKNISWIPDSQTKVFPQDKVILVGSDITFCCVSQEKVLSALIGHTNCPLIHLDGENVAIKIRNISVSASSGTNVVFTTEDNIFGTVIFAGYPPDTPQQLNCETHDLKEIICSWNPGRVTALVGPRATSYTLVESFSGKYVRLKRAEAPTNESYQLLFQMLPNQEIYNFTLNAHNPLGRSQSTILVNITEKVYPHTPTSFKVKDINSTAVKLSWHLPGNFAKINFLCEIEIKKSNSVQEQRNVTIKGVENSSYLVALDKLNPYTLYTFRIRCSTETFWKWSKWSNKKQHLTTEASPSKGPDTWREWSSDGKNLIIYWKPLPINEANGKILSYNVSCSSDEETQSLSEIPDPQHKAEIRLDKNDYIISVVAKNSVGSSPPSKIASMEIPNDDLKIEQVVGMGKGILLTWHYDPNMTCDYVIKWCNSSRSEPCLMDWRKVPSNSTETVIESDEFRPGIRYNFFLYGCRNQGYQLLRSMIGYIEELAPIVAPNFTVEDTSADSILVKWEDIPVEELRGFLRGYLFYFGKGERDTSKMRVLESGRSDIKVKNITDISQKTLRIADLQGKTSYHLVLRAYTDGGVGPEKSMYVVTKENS

B1: human leukemia inhibitory factor (LIF) (ligand)
chain: not shown
notes: Purified recombinant protein; also called hLIF
B2: OSM-M1 (OSM with BC loop truncated from 12 to 7 amino acids) (ligand)
chain: AAIGSCSKEYRVLLGQLQKQTDLMQDTSRLLDPYIRIQGLDVPKLREHCRERPGAFPSEETLRGLGRRGFLQTLNATLGCVLHRLADLEQRLGAPSGLNIEDLEKLQMARPNILGLRNNIYCMAQLLDNSDTAEPTKAGAGASQPPTPTPASDAFQRKLEGCRFLHGYHRFMHSVGRVFSKWGESPN
notes: Made from the 'AGA' modified OSM template; lacks the thrombin site; not shown: N-terminal FLAG tag left after thrombin removal of GST
B3: OSM-WT ('AGA' modified human Oncostatin M, referred to as wild-type OSM) (ligand)
chain: AAIGSCSKEYRVLLGQLQKQTDLMQDTSRLLDPYIRIQGLDVPKLREHCRERPGAFPSEETLRGLGRRGFLQTLNATLGCVLHRLADLEQRLPKAQDLERSGLNIEDLEKLQMARPNILGLRNNIYCMAQLLDNSDTAEPTKAGAGASQPPTPTPASDAFQRKLEGCRFLHGYHRFMHSVGRVFSKWGESPN
notes: also called hOSM with AGA modification; not shown: N-terminal FLAG tag left after thrombin removal of GST
B4: OSM-M2 (OSM with BC loop truncated from 12 to 4 amino acids) (ligand)
chain: AAIGSCSKEYRVLLGQLQKQTDLMQDTSRLLDPYIRIQGLDVPKLREHCRERPGAFPSEETLRGLGRRGFLQTLNATLGCVLHRLADLEQRLGGGNIEDLEKLQMARPNILGLRNNIYCMAQLLDNSDTAEPTKAGAGASQPPTPTPASDAFQRKLEGCRFLHGYHRFMHSVGRVFSKWGESPN
notes: as for B2

What follows are binders tested against T1, soluble gp130 (R&D Systems # …) (assay: SPR (SensiQ), cytokine immobilised, soluble gp130 as analyte, 1:1 model).
Procedure: (§1) Surface Plasmon Resonance (SPR): Kinetic parameters of the interactions between receptor domains and the cytokines LIF, OSM-WT, OSM-M1 or OSM-M2 were analyzed by SPR using the SENSIQ® system (ICX Technologies, Oklahoma City, Okla.) as described by the manufacturer protocol. Briefly, a carboxyl sensor with two channels was installed in SENSIQ® and allowed to thermally equilibrate for about 15 minutes. The channels were initially cleaned with a 3 minute injection of 0.1 M HCl. An activation solution of 2 mM 1-Ethyl-3-[3-dimethylaminopropyl]carbodiimide hydrochloride (EDC) and 0.5 mM N-hydroxysulfo succinimide (NHS) was prepared in deionized water immediately before injection. Activation solution was injected over both channels for approximately 3 minutes followed by a 10 minute injection of 50 μg/mL cytokine (LIF, OSM-WT, OSM-M1 or OSM-M2) in 10 mM acetate buffer, pH 5.0, over channel 1. […] Unreacted NHS esters were capped with a 3 minute injection of 1 M ethanolamine, pH 8.0, over both channels. […] A concentration series of soluble LIFR (# 249-LR-050/CF, R&D Systems, Minneapolis, Minn.), soluble OSMR (# 4389-OR-50, R&D Systems, Minneapolis, Minn.) or soluble gp130 (# 228-GP-050/CF, R&D Systems, Minneapolis, Minn.) in running buffer (10 mM HEPES pH 7.4, 150 mM NaCl, 3.4 mM EDTA, 0.005% Tween-20) were injected over both channels at a flow rate of 25 μl/min. Following a dissociation period of 3 minutes, the surfaces were regenerated by injecting 10 mM NaOH for 30 seconds. Rate constants for association (kₐ) and dissociation (kd) rates were derived by global analysis of the response curves fit to a 1:1 kinetic model (Equations 1 and 2) using QDat software (BioLogic Software, Ltd. Knoxville Tenn. and Nomadics, Inc. Stillwater, Okla.) using 1:1 stoichiometry.
(§2) Reducing the size of the BC loop improves OSM's affinity towards LIFR and OSMR. […] To directly measure the binding kinetics of these ligand-receptor interactions, surface plasmon resonance (SPR) was used.

Kd [nM] | koff [s⁻¹] | kon [M⁻¹ s⁻¹] | Binder
72.4 | 0.00533 | 74000 | B1
26.3 | 0.00534 | 203000 | B2
22.7 | 0.0047 | 207000 | B3
21.5 | 0.00487 | 227000 | B4

These binders were tested against T2, soluble human LIFR (leukemia inhibitory …) (assay: SPR (SensiQ), cytokine immobilised, soluble LIFR as analyte, 1:1 model).
Procedure: as §1, §2

Kd [nM] | koff [s⁻¹] | kon [M⁻¹ s⁻¹] | Binder
3.1 | 0.0023 | 740000 | B1
7.62 | 0.00252 | 331000 | B2
43.8 | 0.004 | 91000 | B3
2.74 | 0.00356 | 1.3e+06 | B4
